The values that follow come from publication PMC11195132.

Where two headings read alike, the source gives them in different places.

For assay [1], the target named is tSH2 domain of SYK (residues M6-N269) fused to an N-terminal 6xHis tag (UniProt P43405). Briefly: FRET or BRET.
Assay [2] has the same target. Briefly: FRET or BRET. This is another data set of the same source.

Consider “unlabeled FCER1G-phospho-peptide (from UniProt P30273 54-82)”, for which the IC50 in assay [1] and in assay [2] was 5 nM in each case.
